Drawing on US20120237507A1, this text covers EC50 for one substance.

The assay deals with c-Met on A549 cells (UniProt P08581). As to the kind of experiment: half-maximal binding, flow cytometry on A549 cells.
UniProt P08581, sequence (P08581 25-1390 limits assumed): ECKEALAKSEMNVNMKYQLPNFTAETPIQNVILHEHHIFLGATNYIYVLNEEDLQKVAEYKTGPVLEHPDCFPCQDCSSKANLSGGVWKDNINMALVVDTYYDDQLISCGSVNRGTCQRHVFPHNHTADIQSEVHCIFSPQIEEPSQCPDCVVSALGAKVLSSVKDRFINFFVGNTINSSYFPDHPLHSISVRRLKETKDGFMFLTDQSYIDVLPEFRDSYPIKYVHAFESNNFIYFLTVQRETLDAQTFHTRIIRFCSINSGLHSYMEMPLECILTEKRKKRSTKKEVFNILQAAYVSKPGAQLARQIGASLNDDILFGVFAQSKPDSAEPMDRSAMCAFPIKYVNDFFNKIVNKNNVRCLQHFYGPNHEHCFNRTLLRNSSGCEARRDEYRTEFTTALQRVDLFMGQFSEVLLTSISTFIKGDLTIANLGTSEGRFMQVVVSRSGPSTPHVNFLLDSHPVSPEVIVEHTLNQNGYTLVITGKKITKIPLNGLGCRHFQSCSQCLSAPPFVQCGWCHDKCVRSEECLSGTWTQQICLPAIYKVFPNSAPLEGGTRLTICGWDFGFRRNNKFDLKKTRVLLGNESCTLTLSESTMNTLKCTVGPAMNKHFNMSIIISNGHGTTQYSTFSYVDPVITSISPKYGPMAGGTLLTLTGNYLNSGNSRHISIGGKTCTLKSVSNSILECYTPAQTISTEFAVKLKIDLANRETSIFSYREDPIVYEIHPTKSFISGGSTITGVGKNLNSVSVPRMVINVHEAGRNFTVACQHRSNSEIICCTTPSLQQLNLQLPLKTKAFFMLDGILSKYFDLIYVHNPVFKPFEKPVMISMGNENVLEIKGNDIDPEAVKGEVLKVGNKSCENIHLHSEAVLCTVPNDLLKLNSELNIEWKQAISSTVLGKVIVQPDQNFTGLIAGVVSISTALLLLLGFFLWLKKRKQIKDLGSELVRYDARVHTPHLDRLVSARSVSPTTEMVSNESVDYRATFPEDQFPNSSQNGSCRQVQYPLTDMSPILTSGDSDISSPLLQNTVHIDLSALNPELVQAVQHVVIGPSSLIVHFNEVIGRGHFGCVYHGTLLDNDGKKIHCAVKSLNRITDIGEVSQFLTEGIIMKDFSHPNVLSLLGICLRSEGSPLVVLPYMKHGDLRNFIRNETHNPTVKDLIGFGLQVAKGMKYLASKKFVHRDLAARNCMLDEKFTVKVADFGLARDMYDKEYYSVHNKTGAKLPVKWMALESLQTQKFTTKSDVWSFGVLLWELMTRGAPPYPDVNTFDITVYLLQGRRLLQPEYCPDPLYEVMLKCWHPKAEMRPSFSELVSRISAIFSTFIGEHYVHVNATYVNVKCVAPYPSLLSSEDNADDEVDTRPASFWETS

With MetMAb/OA-5D5 (Genentech) (antibody), the concentration for a half-maximal effect (EC50) worked out at 1.45 nM.
